Assay [1] has as its target T1, GFP-POLD1 (human, UniProt P28340 1-1107).
T1 chain: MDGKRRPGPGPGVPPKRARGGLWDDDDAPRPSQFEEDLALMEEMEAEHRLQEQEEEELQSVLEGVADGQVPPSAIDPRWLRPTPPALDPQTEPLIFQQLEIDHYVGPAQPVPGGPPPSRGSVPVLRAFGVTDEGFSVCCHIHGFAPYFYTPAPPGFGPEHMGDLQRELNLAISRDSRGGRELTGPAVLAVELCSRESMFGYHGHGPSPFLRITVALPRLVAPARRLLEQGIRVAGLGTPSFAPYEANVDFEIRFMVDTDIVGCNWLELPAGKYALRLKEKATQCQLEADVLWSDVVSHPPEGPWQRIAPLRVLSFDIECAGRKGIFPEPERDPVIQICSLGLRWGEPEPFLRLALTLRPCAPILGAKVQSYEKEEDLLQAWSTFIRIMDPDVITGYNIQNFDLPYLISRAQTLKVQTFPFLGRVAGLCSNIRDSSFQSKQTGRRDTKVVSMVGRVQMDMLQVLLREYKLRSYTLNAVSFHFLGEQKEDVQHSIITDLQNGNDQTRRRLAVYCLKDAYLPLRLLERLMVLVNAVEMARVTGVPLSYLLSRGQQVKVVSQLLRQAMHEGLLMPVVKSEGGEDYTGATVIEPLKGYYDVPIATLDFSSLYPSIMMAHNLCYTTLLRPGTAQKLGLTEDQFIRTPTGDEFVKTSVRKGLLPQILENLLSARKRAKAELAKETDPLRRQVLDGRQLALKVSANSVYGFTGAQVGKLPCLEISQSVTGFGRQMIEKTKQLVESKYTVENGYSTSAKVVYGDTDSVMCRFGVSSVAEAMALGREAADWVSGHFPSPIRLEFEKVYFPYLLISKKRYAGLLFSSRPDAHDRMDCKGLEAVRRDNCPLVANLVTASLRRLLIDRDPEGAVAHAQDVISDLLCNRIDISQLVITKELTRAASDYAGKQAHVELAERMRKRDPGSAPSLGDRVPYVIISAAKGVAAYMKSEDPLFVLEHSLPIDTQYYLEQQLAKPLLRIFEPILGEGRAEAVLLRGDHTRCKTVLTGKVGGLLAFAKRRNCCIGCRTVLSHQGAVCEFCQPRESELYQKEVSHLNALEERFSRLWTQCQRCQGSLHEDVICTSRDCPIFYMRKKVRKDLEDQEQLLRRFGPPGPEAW
Put plainly: MST.

Assay [2] has as its target GFP-FBXW7α (human, UniProt Q969H0 1-707). As to the kind of experiment: MST.

Sequence of GFP-FBXW7α (Q969H0 whole entry): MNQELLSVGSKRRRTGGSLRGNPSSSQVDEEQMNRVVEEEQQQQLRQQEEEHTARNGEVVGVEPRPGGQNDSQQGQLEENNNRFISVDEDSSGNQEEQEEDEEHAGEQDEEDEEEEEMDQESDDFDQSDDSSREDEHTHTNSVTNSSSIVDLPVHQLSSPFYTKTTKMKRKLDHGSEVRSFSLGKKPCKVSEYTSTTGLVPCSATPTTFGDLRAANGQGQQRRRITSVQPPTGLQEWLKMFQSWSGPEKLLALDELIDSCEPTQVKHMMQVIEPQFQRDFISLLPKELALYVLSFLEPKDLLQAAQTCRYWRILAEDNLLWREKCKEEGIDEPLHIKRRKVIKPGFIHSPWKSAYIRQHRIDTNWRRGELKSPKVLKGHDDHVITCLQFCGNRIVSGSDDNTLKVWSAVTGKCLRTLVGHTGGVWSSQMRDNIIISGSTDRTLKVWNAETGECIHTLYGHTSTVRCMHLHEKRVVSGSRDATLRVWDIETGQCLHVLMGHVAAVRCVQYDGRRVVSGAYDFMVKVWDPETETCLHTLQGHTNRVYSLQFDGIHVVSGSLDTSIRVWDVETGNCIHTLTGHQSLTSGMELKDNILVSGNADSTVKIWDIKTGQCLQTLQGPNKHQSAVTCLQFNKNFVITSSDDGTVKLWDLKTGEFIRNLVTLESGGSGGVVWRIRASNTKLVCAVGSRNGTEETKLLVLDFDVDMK

B1: MB1-T58A peptide (peptide)
peptide: APSEDIWKKFELLPAPPLSP
Consider B1, for which the Kd in assay [1] stood at 49.9 µM; in assay [2] it was 2160 µM.

B2: MB1-T58D peptide (peptide)
peptide: APSEDIWKKFELLPDPPLSP
With B2, the Kd in assay [1] was found to be 30.8 µM; in assay [2] it was 110 µM.

B3: MYC-MB1 (WT) peptide (peptide)
peptide: APSEDIWKKFELLPTPPLSP
In the case of B3, the Kd in assay [1] came out at 34.5 µM; in assay [2], 700 µM.
